Laboratory results as given in the RNAGym collection of RNA variant scans (doi:10.7554/elife.90254).

B1: OR4K15 (parent)
chain: GUUAACGGUCAUAGGCCAUGGAAACUAGGAGCACCAUUUCGCUGCCAGUGAAGAAAUGAACAAAGAAAAUCUGGGCCAGGCAGGCAUCAAAAGAAAUAGUCUUGCGCUCAACCAGAAAGUCUGUAAUCAUUUUAAGGGUA

Variants of: B1
Experiment: self-cleavage, relative activity (ratio to wild type); higher = more cleavage; in vitro, sequencing; the parent is a self-cleaving ribozyme

Question: With GUUAACGGUCAUAGGCCAUGGAAACUAGGAGCACCGUUUCGCUGCCAGUGAAGAAAUGAACAAAGAAAACCUGGGCCAGGCAGGCAUCAAAAGAAAUAGUCUUGCGCUCAACCAGAAAGUCUGUAAUCAUUUUAAGGGUA [A36G U70C] as the variant, how does the self-cleavage read?
Answer: 0.6

Question: With GUUAACGGUCAUAGGCCAUGGAAACUAGGAGCACCAUUUCGCUGCCACUGAAGAAAUGAACAGAGAAAAUCUGGGCCAGGCAGGCAUCAAAAGAAAUAGUCUUGCGCUCAACCAGAAAGUCUGUAAUCAUUUUAAGGGUA [G48C A63G] as the variant, how does the self-cleavage read?
Answer: 1.45

Question: For GUUAACGGUCAUAGGCCAUGAAAACUAGGAGCACCAUUUCGCUGCCAGUGAAGAGAUGAACAAAGAAAAUCUGGGCCAGGCAGGCAUCAAAAGAAAUAGUCUUGCGCUCAACCAGAAAGUCUGUAAUCAUUUUAAGGGUA [G21A A55G], which self-cleavage is on record?
Answer: 1.29

Question: With GUUAACGGUCAUAGGCCAUGGAAACUAGGAGCACCAUUUCGCUGCCAGUGAAGAAAUGAACAAAGAAAAUCUGGGCCAGGCAGGCAUCAAAAGAAAUAGUCUUGCGCUCAACCAGGAAGUCUAUAAUCAUUUUAAGGGUA [A116G G123A] as the variant, how does the self-cleavage read?
Answer: 0.19

Question: For GUUAACGGUCAUAGGCCAUGGAAACUAGGAGCACCAUUUCGCUGCCAGUGAAGAAAUGAACAAAGAAAAUCUGGGCCAGGCAGGCAUCAAAAGAAAUAGUCUCGCGCACAACCAGAAAGUCUGUAAUCAUUUUAAGGGUA [U103C U108A], which self-cleavage is on record?
Answer: 0.02

Question: Which self-cleavage does the source give for GUUAACGGUCAUAGGCCAUGGAUACUAGGAGCACCAUUUCGCUGCCAGUGAAGAAAUGAACAAAGAAAAUCUGGGCCAGGCAGGCAUCAAAAGUAAUAGUCUUGCGCUCAACCAGAAAGUCUGUAAUCAUUUUAAGGGUA [A23U A94U] here?
Answer: 0.3

Question: Which self-cleavage does the source give for GUUAACGGUCAUAGGCCAUGGAAACUAGGAGCACCAUUUCGCUGCCAGUGAAGAAAUGAUCAAAGAAAAUCUGGGCCAGGCAGGCAUCGAAAGAAAUAGUCUUGCGCUCAACCAGAAAGUCUGUAAUCAUUUUAAGGGUA [A60U A89G] here?
Answer: 1.73

Question: For GUUAACGGUCAUAGGCCAUGGAAACUAGGAGCACCAUUUCGCUGCCAGUGAAGAGAUGAACAAAGAAAAUCUGGGCCAGGCAGGCAUCAAAAGAAAUAGUCUUGCGCUCAACCAGAAAGUCUUUAAUCAUUUUAAGGGUA [A55G G123U], which self-cleavage is on record?
Answer: 2.01

Question: Which self-cleavage does the source give for GUUAACGGUCAUAGGCCGUGGAAACUAGGAGCACCAUUUCGCUGCCAGUGAAGAAAUGAACAAAGAAAAUCUGGGCCAGGCAGGCAUCAAAAGAAAUAGUCUUGCGCUCAACCAGAAAGUCUGUAAUCAUUCUAAGGGUA [A18G U132C] here?
Answer: 0.77

Question: Which self-cleavage does the source give for GUUAACGGUCAUAGGCCAUGGAAACUAGGAGCACCAUUUCGCUGCCAGUGAAGGAAUGAACAAAGAAAAUCUGGGCCAGGCAGGCAUCAAAAGAAAUAGUCUUGCGCUCAACCAGAAAGUCUGUAGUCAUUUUAAGGGUA [A54G A126G] here?
Answer: 0.64

Question: With GUUAACGGUCAUAGGCCAUGGAAACUAGGAGCACCAUUUCGCUGCCAGUGAAGAAAUGAACAAAGAAAAUCUGGGCCAAGCAGGCAUCAAAAGGAAUAGUCUUGCGCUCAACCAGAAAGUCUGUAAUCAUUUUAAGGGUA [G79A A94G] as the variant, how does the self-cleavage read?
Answer: 0.15

Question: Which self-cleavage does the source give for GUUAACGGUCAUAGGCCAUGGAAACUAGGAGCACCAUAUCGCUGCCAGUGAAGAAAUGAACAAAGAAAAUCUGGGCCAGGCAGGCAUCAAAAGAAAUAGUCUUGCGCACAACCAGAAAGUCUGUAAUCAUUUUAAGGGUA [U38A U108A] here?
Answer: 0.04

Question: With GUUAACGGUCAUAGGCCAUGGAAACAAGGAGCACCAUUUCGCUGCCAGUGAAGAAAUGAACAAAGAAAAUCUGGGCCUGGCAGGCAUCAAAAGAAAUAGUCUUGCGCUCAACCAGAAAGUCUGUAAUCAUUUUAAGGGUA [U26A A78U] as the variant, how does the self-cleavage read?
Answer: 0.43

Question: For GUUAACGGUCAUAGGCCAUGGAAACUAGGAGCACCAUUUCGCUGCCAGUGAAGAAAUGAACAAAGAAAAUCUGGGCCAGGCAGGCACCAAAAGAAAUAGUCUUGAGCUCAACCAGAAAGUCUGUAAUCAUUUUAAGGGUA [U87C C105A], which self-cleavage is on record?
Answer: 0.02

Question: Which self-cleavage does the source give for GUUAACGGUCAUAGGCCACGGAAACUAGGAGCACCAUUUCGCUGCCAGUGAAGAAAUGAACAAAGAAAAUCUGGGCCAGGCAGGCAUCAAAAGAAAUAGUCUUGCGCUCAACCAGAAAGUCUGUAAUCAUUUUAAGGGCA [U19C U139C] here?
Answer: 1.58

Question: Which self-cleavage does the source give for GUUAACGGUCAUAGGCCAUGGAAACUAGGAGCACCAUUUCGCUGCCAGUGAAGAAAUGAACAAAGAAAAUCUGGGCCAGGCAGGCAUCAAAAGAAAUAGUCUUGCGCUCUACCAGAAAGUCUGUAAUCAUUAUAAGGGUA [A110U U132A] here?
Answer: 1.8

Question: With GUUAACGGUCAUAGGCCAUGGAAACUAGGAGCUCCAUUUCGCUGCCAGUGAAGAAAUGAACAAAGAAAAUCUGGGCCAGGCAGGCAUCAAAAGAAAUAGUCUUGCGCUCUACCAGAAAGUCUGUAAUCAUUUUAAGGGUA [A33U A110U] as the variant, how does the self-cleavage read?
Answer: 1.71

Question: For GUUAACGGUCAUUGGCCAUGGAAACUAGGAGCACCAUUUCGCUGCCAGUGAAGAAAUGAACAAAGAAAAUCUGGGCCAGGCAGGCAUCAAAAGAAAUAGUCUUGCGCUCAACCAGAAAGUCUGUAACCAUUUUAAGGGUA [A13U U127C], which self-cleavage is on record?
Answer: 0.75

Question: Which self-cleavage does the source give for GUUAACGGUCAUAGGCCAUGGAAACAAGGAGCACCAUUUCGCUGCCAGUGAAGAAAUGAACAAAGAAAAUCUGGGCCAGGCAGGCAUCAAAAGAAAUAGUCUUGCGCUCAACCAGAGAGUCUGUAAUCAUUUUAAGGGUA [U26A A117G] here?
Answer: 1.78

Question: Which self-cleavage does the source give for GUUAACGGUCAUAGGCCUUGGAAACUAGGAGCACCAUUUCGCUGCCAGUGAAGAAAUGAACAAAGAAAAUCUGGGCCAGGCAGGCAUCCAAAGAAAUAGUCUUGCGCUCAACCAGAAAGUCUGUAAUCAUUUUAAGGGUA [A18U A89C] here?
Answer: 0.9

Question: Which self-cleavage does the source give for GUUAACGGUCAUAGGCCAUGGAAACUAGGAGCACCAUUUCGCUGCCAGUGAAGAAAUGAACAAAGAAAAUCUGGGCCAGGCAGGCAUCAAAGGAAAUAGUCUUGCGCUCAACCAGAAAGUCUGUAAUCAUUUUAUGGGUA [A92G A135U] here?
Answer: 2.03
